Laboratory results as given in patent publication US20080119412A1, “Polypeptides for Modulating Binding of Trp Channel Proteins and Trp- Associated Proteins” (NoNO Inc., priority 2003, published 2008).
Residues, ends and D or L forms follow the SMILES beside them. No end group written: not given here. *: point of attachment. Biotin = O=C1N[C@H]2[C@H](CS[C@H]2CCCCC(=O)*)N1

What was measured:
INADL d3 = molecular target: T1, INADL d3 (Homo sapiens, UniProt Q8NI35); assay: G assay, peptide binding to GST-PDZ fusion (Table 11); settings: Table 11, titrations or binding assays
T1 construct: made in house; host or cells: E. coli (DH5alpha, BL21 or JM109)
T1 sequence (Q8NI35 with tags, fused parts or gaps): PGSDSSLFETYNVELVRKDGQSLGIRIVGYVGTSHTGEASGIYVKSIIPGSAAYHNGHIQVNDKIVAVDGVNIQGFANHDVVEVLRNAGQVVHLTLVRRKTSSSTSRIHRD
Method: (§1) The binding of labeled PL peptide (e.g., as listed in TABLE 2 and TABLE 4) to this surface is then measured. In a preferred embodiment, the assay is carried out as follows:
(§2) (1) A PDZ-domain polypeptide is bound to a surface, e.g. a protein binding surface. In a preferred embodiment, a GST/PDZ fusion protein containing one or more PDZ domains is bound to a polystyrene 96-well plate. […] In one embodiment, the GST/PDZ fusion protein is bound via an anti-GST antibody that is coated onto the 96-well plate. Adequate binding to the plate can be achieved when:
(§3) (2) Biotinylated PL peptides are allowed to react with the surface by addition of 50 μl per well of 20 μM solution of the biotinylated peptide in PBS/BSA for 10 minutes at 4° C., followed by an additional 20 minute incubation at 25° C. The plate is washed 3 times with ice cold PBS.
(§4) (3) The binding of the biotinylated peptide to the GST/PDZ fusion protein surface can be detected using a variety of methods and detectors known to one of skill in the art. In one embodiment, 100 μl per well of 0.5 μg/ml streptavidin-horseradish peroxidase (HRP) conjugate dissolved in BSA/PBS is added and allowed to react for 20 minutes at 4° C. The plate is then washed 5 times with 50 mM Tris pH 8.0 containing 0.2% Tween 20, and developed by addition of 100 μl per well of HRP-substrate solution (TMB, Dako) for 20 minutes at room temperature (RT). The reaction of the HRP and its substrate is terminated by addition of 100 μl per well of 1 M sulfuric acid, and the optical density (O.D.) of each well of the plate is read at 450 um.
(§5) (4) Specific binding of a PL peptide and a PDZ domain polypeptide is determined by comparing the signal from the well(s) in which the PL peptide and PDZ domain polypeptide are combined, with the background signal(s). […] Typically a specific or selective reaction will be at least twice background signal, more typically more than 5 times background, and most typically 10 or more times the background signal. […] Correspondingly, a statistical test (e.g. a T-test) comparing repeated measurements of the signal with -repeated measurements of the background will result in a p-value <0.05, more typically a p-value <0.01, and most typically a p-value <0.001 or less. As noted, in an embodiment of the G assay, the signal from binding of a given PL peptide to immobilized (surface bound) GST polypeptide alone is one suitable negative control (sometimes referred to as B1). Because all measurement are done in multiples (i.e. at least duplicate) the arithmetic mean (or, equivalently, average.) of several measurements is used in determining the binding, and the standard error of the mean is used in determining the probable error in the measurement of the binding. The standard error of the mean of N measurements equals the square root of the following: the sum of the squares of the difference between each measurement and the mean, divided by the product of (N) and (N−1). Thus, in one embodiment, specific binding of the PDZ protein to the platebound peptide is determined by comparing the mean signal (“mean S”) and standard error of the signal (“SE”) for a particular PL-PDZ combination with the mean B1.

ZO-1 d2 [1] = molecular target: T2, ZO-1 d2 (Homo sapiens, UniProt Q07157, DEL264-264); assay: as above; settings: Table 11, titrations or binding assays
T2 construct: made in house; host or cells: E. coli (DH5alpha, BL21 or JM109)
T2 sequence (Q07157 with tags, fused parts or gaps DEL264-264): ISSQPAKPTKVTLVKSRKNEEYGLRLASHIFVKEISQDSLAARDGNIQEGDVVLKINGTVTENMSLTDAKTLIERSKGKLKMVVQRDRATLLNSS
Method: as §1, §2, §3, §4, §5

ZO-1 d2 [2] = molecular target: T2, ZO-1 d2; assay: G3 assay titration, GST-PDZ fusion / biotinylated peptide; assay type: binding
Method: The G3 assay is identical to the G0 assay with the following exceptions. The peptides are typically present at 0.1 μM rather than 20 μM. The peptides are also pre-incubated with the HRP-streptavidin prior to adding to the assay plate. In the G0 assay, free peptide is incubated with the PDZ proteins prior to the addition of the HRP-streptavidin. Thus, for the G0 assay one can lose signal if the bound peptide dissociates from the PDZ protein prior to the addition of the HRP-streptavidin. In the G3 modified assay the HRP-streptavidin/peptide complex is added to the plate in one step, thus increasing the likelihood that all the bound peptide will be bound to HRP-streptavidin. The G3 modified assay increases the chance of observing weak interactions.
This example describes assays to identify binding between TRPM7 and PDZ domains. GST-PDZ fusions are produced that each contain an entire PDZ domain (or multiple PDZ domains), the collection encompassing approximately 90% of all PDZ domains identified in the human genome. (See Table 5 and Section V (PDZ Proteins and PL Protein Interactions Disclosure). Biotinylated peptide corresponding to 11 residues of Tat coupled to the C-terminal 9 amino acids of TRPM7 ([…]; SEQ ID NO:258) is synthesized and purified by HPLC.
• Nunc MaxiSorp 96 well Immuno-plate, Nunc • PBS pH 7.4 (phosphate buffered saline, 8 g NaCl, 0.29 g KCl, 1.44 g Na2HPO4, 0.24 g KH2PO4, add H2O to 1 liter and pH 7.4; 0.2 μm filter) • Assay Buffer: 2% BSA in PBS (20 g of bovine serum albumin per liter PBS, fraction V, ICN Biomedicals, cat#IC15142983 • Goat anti-GST polyclonal Ab, stock 5 mg/ml, stored at 4° C., Amersham Pharmacia cat#27-4577-01 • Dilute 1:1000 in PBS, final concentration 5 μg/ml. • HRP-Streptavidin, 2.5 mg/2 ml stock stored at 4° C., Zymed cat#43-4323, dilute 1:2000 into Assay buffer, final concentration of […] • Wash Buffer, PBS • Biotinylated peptides (HPLC purified, stock solution stored in −20° C. freezer) • GST-PRISM proteins (stock stored at −80° C., after 1st thaw store in −10° C. freezer) • TMB (3,3′,5,5′, teramethylbensidine), tablets, Sigma cat.#T5525 • Per plate, dissolve 1 tablet in 1 ml DMSO, add 9 ml Citrate/Phosphate buffer pH 5.4 and 2 μL H2O2 • 0.1 M H2SO4, Sigma cat.#S1526 • 12-w multichannel pipettor & tips • 50 ml reagent reservoirs, Costar#4870 • 50, 15 ml polypropylene conical tubes • Costar Transtar 96 Costar #7605 • Transtar 96 Cartridge Costar #7610 • Molecular Devices microplate reader (450 & 650 nm filters) with SoftMax Pro software *When using reagents stored at or 4° C. or −20° C., remove & keep on ice
• 1. Coat plate with 100 μl of 5 μg/ml anti-GST, overnight at 4° C. • 2. Dump contents of plate & out tap dry on paper towels • 3. Block with 200 μl Assay Buffer for 2 hrs at room temperature • 4. Prepare proteins at 5 μg/ml in Assay Buffer • 5. Wash 3× with cold PBS (4° C.), avoiding letting the plates dry out • 6. Add proteins at 50 μl per well, incubate 1 to 2 hrs at 4° C. • 7. Prepare peptides to desired concentration in Assay Buffer • 8. Wash 3× with cold PBS (4° C.), avoiding letting the plates dry out • 9. Add HRP-Streptavidin/peptide complex [prepared by incubating for 20 minutes at room temperature HRP-Streptavidin (1:2000) with the desired biotin-peptide concentration for 20 minutes at room temperature] at 50 μl per well on ice • 10. Place at room temperature for exactly 30 minutes • 11. Promptly wash 5× with PBS at room temperature • 12. Add 100 μl/well TMB substrate (write time on plate) • 13. Incubate in dark at room temperature for a maximum of 30 minutes • 14. Read plate at 25 minutes (650 nm), optional • 15. Stop reaction with 100 μl of 0.18 M H2SO4, 30 minutes after adding TMB • Take last reading at 450 nm soon after stopping reaction
The G3 assay was performed using 0.1 μM peptide representing 11 amino acids of Tat fused to the final 9 amino acids of TRPM7 ([…]; SEQ ID NO:258). […]

Compound	PDZ domain bound (INADL d3)	PDZ domain bound (ZO-1 d2 [1])	EC50 (ZO-1 d2 [2]) [nM]
RSGATIPLVGQDIIDLQTEV	INADL D3	–	–
VPSDNIDSQGRNASTNDSLL (Biotin-VPSDNIDSQGRNASTNDSLL)	INADL D3	–	–
ILNSIQVMRAQMNQIQSVEV	INADL D3	ZO-1 D2	–
NYKLNTDHAGSNDNIALLVQ (Biotin-NYKLNTDHAGSNDNIALLVQ)	–	ZO-1 D2	–
YGRKKRRQRRRNDNIALLVQ	–	ZO-1 D2	–
PSSRASSRASSRPRPDDLEI	–	ZO-1 D2	–
PIPAGGCTFSGIFPTLTSPL	INADL D3	–	–
TEGNESSEATSPVNAIYSLA	–	ZO-1 D2	–
YGRKKRRQRRRAVAATYSNL (Biotin-YGRKKRRQRRRAVAATYSNL)	–	ZO-1 D2	–
GRWTGRAMSAWKPTRRETEV (Biotin-GRWTGRAMSAWKPTRRETEV)	INADL D3	–	–
STDNLVRPFMDTLASHQLYI	INADL D3	–	–
LAVLAYSITLVMLWSIWQYA	INADL D3	ZO-1 D2	–
YSATYSELEDPGEMSPPIDL (Biotin-YSATYSELEDPGEMSPPIDL)	INADL D3	–	–
KHSRKSSSYSSSSTTVKTSY	INADL D3	ZO-1 D2	–
VDPNSPAAKKKYVSYNNLVI (Biotin-VDPNSPAAKKKYVSYNNLVI)	INADL D3	ZO-1 D2	–
CC(C)[C@H](NC(=O)[C@@H]1CCCN1C(=O)[C@@H](NC(=O)[C@H](CCCCN)NC(=O)[C@H](CCCNC(=N)N)NC(=O)[C@H](CC(=O)O)NC(=O)CNC(=O)[C@H](CCCNC(=N)N)NC(=O)[C@H](C)NC(=O)[C@H](CCCNC(=N)N)NC(=O)[C@H](CCCNC(=N)N)NC(=O)[C@H](CCCNC(=N)N)NC(=O)[C@H](CCC(N)=O)NC(=O)[C@H](CCCNC(=N)N)NC(=O)[C@H](CCCNC(=N)N)NC(=O)[C@H](CCCCN)NC(=O)[C@H](CCCCN)NC(=O)[C@H](CCCNC(=N)N)NC(=O)CNC(=O)[C@H](Cc1ccc(O)cc1)NC(=O)CCCC[C@@H]1SC[C@@H]2NC(=O)N[C@@H]21)C(C)C)C(=O)O [Peptide 1841] (Biotin-YGRKKRRQRRRARGDRKVPV-OH)	–	–	< 20
KKKKQPGNSTKESESTNSVRLML	INADL D3	ZO-1 D2	–
LASKSAEEGKQIPDSLSTDL	INADL D3	–	–
HHLVAQRDIRQFQLQHWLAI	INADL D3	ZO-1 D2	–
FHSKTAGANTTDKELEVLSL	INADL D3	ZO-1 D2	–
LNSCSNRRVYKKMPSIESDV (Biotin-LNSCSNRRVYKKMPSIESDV)	INADL D3	ZO-I D2	–
CC[C@H](C)[C@H](NC(=O)[C@H](CCCCN)NC(=O)[C@H](CCCNC(=N)N)NC(=O)[C@H](CC(=O)O)NC(=O)CNC(=O)[C@H](CCCNC(=N)N)NC(=O)[C@H](C)NC(=O)[C@H](CCCNC(=N)N)NC(=O)[C@H](CCCNC(=N)N)NC(=O)[C@H](CCCNC(=N)N)NC(=O)[C@H](CCC(N)=O)NC(=O)[C@H](CCCNC(=N)N)NC(=O)[C@H](CCCNC(=N)N)NC(=O)[C@H](CCCCN)NC(=O)[C@H](CCCCN)NC(=O)[C@H](CCCNC(=N)N)NC(=O)CNC(=O)[C@H](Cc1ccc(O)cc1)NC(=O)CCCC[C@@H]1SC[C@@H]2NC(=O)N[C@@H]21)C(=O)N[C@@H](CCCNC(=N)N)C(=O)N[C@H](C(=O)O)C(C)C [Peptide 1836] (Biotin-YGRKKRRQRRRARGDRKIRV-OH)	–	–	< 10
YGRKKRRQRRRAVAATSANL	INADL D3	ZO-1 D2	–
YGRKKRRQRRRSEGVPDLLV	–	ZO-1 D2	–
YGRKKRRQRRRARGDRKRIV (Biotin-YGRKKRRQRRRARGDRKRIV)	–	ZO-1 D2	–
HSCCNRARQERLQRRRETQV (Biotin-HSCCNRARQERLQRRRETQV; cysteine pairing not given here)	INADL D3	ZO-1 D2	–
SLIGPVQKEYQRELGKLSSP	INADL D3	–	–

Compound	PDZ domain bound (INADL d3)	PDZ domain bound (ZO-1 d2 [1])	EC50 (ZO-1 d2 [2]) [nM]
VHKVRNKFKAKCSLCRLYII (Biotin-VHKVRNKFKAKCSLCRLYII; cysteine pairing not given here)	INADL D3	ZO-1 D2	–
LQFHRGSRAQSFLQTETSVI	INADL D3	–	–
YGRKKRRQRRRARGDRKRWL (Biotin-YGRKKRRQRRRARGDRKRWL)	–	ZO-1 D2	–
DFRPSFKHILFRRARRGFRQ	INADL D3	ZO-1 D2	–
ELLQFCRTPNPALKNGQYWV	INADL D3	ZO-1 D2	–
YGRKKRRQRRRAVAAASANL (Biotin-YGRKKRRQRRRAVAAASANL)	–	ZO-1 D2	–
QDFRRAFRRILARPWTQTAW	INADL D3	ZO-1 D2	–
YGRKKRRQRRRQDEEEGIWA (Biotin-YGRKKRRQRRRQDEEEGIWA)	–	ZO-1 D2	–
YGRKKRRQRRRGASADSTQA	–	ZO-1 D2	–
YGRKKRRQRRREYLGLDVPV	INADL D3	ZO-1 D2	–
ENLELPVNPSSVVSERISSV (Biotin-ENLELPVNPSSVVSERISSV)	INADL D3	–	–
YGRKKRRQRRRARSDRGIWA (Biotin-YGRKKRRQRRRARSDRGIWA)	–	ZO-1 D2	–
YGRKKRRQRRRKLSSIESDV (Biotin-YGRKKRRQRRRKLSSIESDV)	–	ZO-1 D2	–
TQGFPGPATWRRISSLESEV	INADL D3	–	–
SSKSKSSEESQTFFGLYKL	INADL D3	ZO-1 D2	–
RELVDRGEVRQFTLRHWLKV	INADL D3	ZO-I D2	–
HDFRRAFKKILARGDRKRIV	INADL D3	ZO-1 D2	–
RRRRRRRGTNPAVAATSANL	–	ZO-1 D2	–
HAMNAAPRAMENAPALRTSH (Biotin-HAMNAAPRAMENAPALRTSH)	INADL D3	–	–
SSSRRDSSWSETSEASYSGL	–	ZO-1 D2	–
TTNNNPNSAVNIKKIFTDV (Biotin-TTNNNPNSAVNIKKIFTDV)	INADL D3	ZO-1 D2	–
YGRKKRRQRRRDKELEVLSL	–	ZO-1 D2	–
RRRRRRRGNTTDKELEVLSL	–	ZO-1 D2	–
YVYSRVKNLNSSEGVPDLLV (Biotin-YVYSRVKNLNSSEGVPDLLV)	–	ZO-1 D2	–
YGRKKRRQRRRARGDRKRWA (Biotin-YGRKKRRQRRRARGDRKRWA)	–	ZO-1 D2	–
PGQPPKVKSEFNSYSLTGYV	INADL D3	–	–
